Measurements published in US20190359693A1.
Where a chain is given by its changes, count along the chain named.

B1: SD3001 (VHH)
VHH: EVQLVESGGGLVQPGGSLRLSCAASGFTFSTSWMSWLRQAPGKGLEWVSVINTDGGTYYADSVKGRFTISRDNSKNTLYLQMNSLRAEDTAVYYCAKDWGGPEPTRGQGTQVTVSS
B2: SD3004 (VHH)
VHH: B1 VHH with S35Y, N76D
B3: SD3002 (VHH)
VHH: B1 VHH with S35Y
B4: SD3086 (VHH)
VHH: B1 VHH with S35Y, L37V, Q111L
B5: SD3003 (VHH)
VHH: B1 VHH with N76D
B6: SD3072 (VHH)
VHH: EVQLVESGGGLVQPGGSLRLSCAASGLSLDTYAVGWFRQAPGKEREGITCISSGHGMTYYADSVKGRFTVSTDNSKNTLYLQMNSLRAEDTAVYYCATESRYYCSDNWPAPQRYIYWGQGTLVTVSS
B7: SD3073 (VHH)
VHH: B6 VHH with A24I, I48V, T49S
B8: SD3103 (VHH)
VHH: B6 VHH with A24I, I48V, T49S, M57D, V70I
B9: SD3102 (VHH)
VHH: B6 VHH with A24I, I48V, T49S, M57Q, V70I
B10: SD3074 (VHH)
VHH: B6 VHH with A24I, V70I
B11: SD3100 (VHH)
VHH: B6 VHH with A24I, I48V, T49S, M57A, V70I
B12: SD3104 (VHH)
VHH: B6 VHH with A24I, I48V, T49S, M57N, V70I
B13: SD3076 (VHH)
VHH: B6 VHH with I48V, T49S, M57L, V70I
B14: SD3101 (VHH)
VHH: B6 VHH with A24I, I48V, T49S, M57S, V70I
B15: SD3075 (VHH)
VHH: B6 VHH with I48V, T49S, M57I, V70I
B16: SD3007 (VHH)
VHH: EVQLLESGGGLVQPGGSLRLSCAASGFTLENKAIGWFRQAPGKEREGVSCISKSGSWTYYADSVKGRFTISRDNSKNTVYLQMNSLRAEDTAVYYCATTTAGGGLCWDGTTFSRLASSWGQGTQVTVSS
B17: SD3011 (VHH)
VHH: B16 VHH with S49L
B18: SD3010 (VHH)
VHH: B16 VHH with S49L, V79L
B19: SD3088 (VHH)
VHH: B16 VHH with S49L, V79L, Q124L
B20: SD3008 (VHH)
VHH: B16 VHH with A88P
B21: SD3009 (VHH)
VHH: B16 VHH with I34M, G35S, S49L, V79L
B22: SD3012 (VHH)
VHH: B16 VHH with S49L, A88P
B23: SD3069 (VHH)
VHH: B6 VHH with A24I
B24: SD3071 (VHH)
VHH: B6 VHH with A24I, M57L
B25: SD3070 (VHH)
VHH: B6 VHH with A24I, M57I
B26: SD3023 (VHH)
VHH: EVQLLESGGGLVQAGGSLRLSCAASGRTYAMSWFRQAPGKEREFVSHINALGTRTYYADSVKGRFTISRDNSKNTLYLQMNSLRPEDTAVYYCTAQGQWRAAPVAVAAEYEFWGQGTQVTVSS
B27: SD3027 (VHH)
VHH: B26 VHH with H47A
B28: SD3026 (VHH)
VHH: B26 VHH with A14P, H47A, P85A
B29: SD3094 (VHH)
VHH: B26 VHH with A14P, S32G, S46A, P85A, Q118L
B30: SD3024 (VHH)
VHH: B26 VHH with A14P, P85A
B31: SD3028 (VHH)
VHH: B26 VHH with S46A
B32: SD3025 (VHH)
VHH: B26 VHH with A14P, S46A, P85A
B33: SD3095 (VHH)
VHH: B26 VHH with A14P, S32G, S46A, Q118L
B34: SD3049 (VHH)
VHH: B6 VHH with V34M, G35S, I48V, T49S, V70I, T72R, R87Q, A88P, V93R, L122Q
B35: SD3051 (VHH)
VHH: EVQLVESGGGLVQPGGSLRLSCAASGLSLDTYAMSWFRQAPGKEREGVSCISSGHGITYYADSVKGRFTISRDNSKNTLYLQMNSLQPEDTARYYCATESRYYCSDNWPAPQRYIYWGQGTQVTVSS
B36: SD3056 (VHH)
VHH: B35 VHH with V48I, S49T, I57F
B37: SD3054 (VHH)
VHH: B35 VHH with V48I, S49T
B38: SD3053 (VHH)
VHH: B35 VHH with I57F
B39: SD3050 (VHH)
VHH: B35 VHH with V48I, S49T, I57M
B40: SD3052 (VHH)
VHH: B35 VHH with I57L
B41: SD3055 (VHH)
VHH: B35 VHH with V48I, S49T, I57L
B42: SD3041 (VHH)
VHH: EVQLVESGGGLVQPGGSLRLSCAASGRTLSIYSMSWFRQAPGKEREFVSAIGWNSGRTYYADSVKGRFTISRDNSKNTLYLQMNSLRAEDTAVYYCAAAKGPLRLSSQADYWGQGTQVTVSS
B43: SD3045 (VHH)
VHH: B42 VHH with P14A
B44: SD3043 (VHH)
VHH: B42 VHH with S49A, A50T
B45: SD3044 (VHH)
VHH: B42 VHH with A50T, S75A, K76R
B46: SD3046 (VHH)
VHH: B42 VHH with P14A, A50T
B47: SD3042 (VHH)
VHH: B42 VHH with A50T
B48: SD3048 (VHH)
VHH: B42 VHH with P14A, A50T, S75A, K76R
B49: SD3047 (VHH)
VHH: B42 VHH with P14A, S49A, A50T

target: hemagglutinin (HA) of influenza B/Lee/40 (Old) (influenza B virus) (UniProt P03460); experiment: cell-based or functional assay
Sequence (P03460 16-584 limits assumed): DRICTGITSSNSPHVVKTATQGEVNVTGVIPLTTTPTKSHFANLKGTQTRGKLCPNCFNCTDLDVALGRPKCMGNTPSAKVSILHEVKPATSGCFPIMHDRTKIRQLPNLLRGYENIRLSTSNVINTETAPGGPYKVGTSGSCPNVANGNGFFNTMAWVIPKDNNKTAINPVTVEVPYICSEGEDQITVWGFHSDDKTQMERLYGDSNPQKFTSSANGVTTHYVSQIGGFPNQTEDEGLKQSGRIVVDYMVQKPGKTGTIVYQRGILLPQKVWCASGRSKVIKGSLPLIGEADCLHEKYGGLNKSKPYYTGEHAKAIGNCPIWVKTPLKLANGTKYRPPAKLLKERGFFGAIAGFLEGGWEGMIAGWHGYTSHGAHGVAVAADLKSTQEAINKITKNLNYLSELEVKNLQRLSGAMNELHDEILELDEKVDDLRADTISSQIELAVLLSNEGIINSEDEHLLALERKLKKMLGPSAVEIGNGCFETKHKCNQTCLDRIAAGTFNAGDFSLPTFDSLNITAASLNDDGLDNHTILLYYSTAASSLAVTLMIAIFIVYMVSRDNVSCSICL

Binder | VNA IC50 [nM]
B1 | > 1000
B2 | > 1000
B3 | > 1000
B4 | > 1000
B5 | > 1000
B6 | 318
B7 | 59
B8 | > 1000
B9 | > 1000
B10 | 42
B11 | > 1000
B12 | > 1000
B13 | > 1000
B14 | > 1000
B15 | > 1000
B16 | > 1000
B17 | 59
B18 | 227
B19 | 127
B20 | > 1000
B21 | 372
B22 | 60
B23 | 67
B24 | > 1000
B25 | > 1000

target: hemagglutinin (HA) of influenza A/Brisbane/10/07 (H3N2) (influenza A virus A/Brisbane/10/07 (H3N2)); experiment: cell-based or functional assay

Binder | VNA IC50 [nM]
B26 | 64
B27 | 16
B28 | 16
B29 | 8
B30 | 80
B31 | 101
B32 | 160
B33 | 8

target: hemagglutinin (HA) of influenza B/Harbin/7/94 (Yamagata) (influenza B virus); experiment: cell-based or functional assay

Binder | VNA IC50 [nM]
B1 | > 1000
B2 | 101
B3 | 137
B5 | > 1000
B34 | > 1000
B35 | > 1000
B36 | > 1000
B6 | > 1000
B7 | > 1000
B8 | > 1000
B9 | > 1000
B10 | > 1000
B37 | > 1000
B38 | > 1000
B39 | > 1000
B11 | > 1000

Binder | VNA IC50 [nM]
B12 | > 1000
B13 | > 1000
B40 | > 1000
B14 | > 1000
B41 | > 1000
B15 | > 1000
B16 | > 1000
B17 | 96
B18 | 173
B20 | > 1000
B21 | 516
B22 | 78
B23 | > 1000
B24 | > 1000
B25 | > 1000

target: hemagglutinin (HA) of influenza A/New York/107/03 (PR8) (influenza A virus A/New York/107/03 (PR8)); experiment: cell-based or functional assay

Binder | VNA IC50 [nM]
B26 | 16
B27 | 6
B28 | 8
B29 | 6
B30 | 20
B31 | 26
B32 | 13
B33 | 6
B42 | > 1000
B43 | > 1000
B44 | > 1000
B45 | > 1000
B46 | > 1000
B47 | > 1000
B48 | 858
B49 | > 1000
